In publication PMC7797036:

Key:
[1] = molecular target: APOBEC1 (A1), RNase A treated (UniProt P41238); test: fluorescence anisotropy
[2] = system: APOBEC1 (A1), RNase A untreated; test: fluorescence anisotropy
[3] = system: APOBEC3H haplotype VII; test: fluorescence anisotropy
[4] = molecular target: APOBEC3C (UniProt Q9NRW3 1-190); test: EMSA
APOBEC3C, sequence (Q9NRW3 whole entry): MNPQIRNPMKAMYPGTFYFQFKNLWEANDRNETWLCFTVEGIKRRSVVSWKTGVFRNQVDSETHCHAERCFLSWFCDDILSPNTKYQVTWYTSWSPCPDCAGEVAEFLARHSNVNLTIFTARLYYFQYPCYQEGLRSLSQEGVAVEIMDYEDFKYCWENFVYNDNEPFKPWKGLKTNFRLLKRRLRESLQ

APOBEC1 (A1), RNase A treated, sequence (P41238 whole entry): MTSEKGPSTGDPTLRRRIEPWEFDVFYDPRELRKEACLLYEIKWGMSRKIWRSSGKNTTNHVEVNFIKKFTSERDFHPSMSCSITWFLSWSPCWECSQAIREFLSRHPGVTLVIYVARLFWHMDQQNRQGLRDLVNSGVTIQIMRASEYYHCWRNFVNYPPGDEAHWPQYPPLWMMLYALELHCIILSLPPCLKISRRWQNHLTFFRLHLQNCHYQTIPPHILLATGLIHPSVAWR

Row | Molecule | Kd [1] [nM] | binding signal (fold Kd increase vs no RPA) [1] | Kd [2] [nM] | binding signal (fold Kd increase vs no RPA) [3] | binding result [4]
1 | 118 nt ssDNA with two 5'TTC motifs 63 nt apart | 343 | 9 | 351 | 3 | –
2 | ATTATTATTATTCGAATGGATTTATTTATTTATTTATTTATTT (ssDNA) [43 nt ssDNA] | – | – | – | – | binds
